{"source": "patent US20190323012", "about": "“TNF-Alpha-Binding Aptamer, And Therapeutic Use For Same” (BIOIS CO., LTD., published 2019)", "binders": {"B1": {"name": "ATK007 (ssRNA)", "RNA": "GCGGAAGCGUGCUGGGCCCGGCUUGCAGGUCGCCGAAAUGACCGCACACAUAACCCAGAGGUCGAU", "modifications": "2'-F on all C and U"}, "B2": {"name": "ATK001 (ssRNA)", "RNA": "GGGAGGACGAUGCGGCCACUGGCUAGGAACUCGAGUACUGGGUGGCAGACGACUCGCCCGA", "modifications": "2'-F on all C and U"}}, "key": {"TNF-alpha [1]": {"molecular_target": "T1, TNF-alpha (Homo sapiens, UniProt P01375 P01375:77-233)", "T1 sequence (P01375 77-233, one chain of several)": "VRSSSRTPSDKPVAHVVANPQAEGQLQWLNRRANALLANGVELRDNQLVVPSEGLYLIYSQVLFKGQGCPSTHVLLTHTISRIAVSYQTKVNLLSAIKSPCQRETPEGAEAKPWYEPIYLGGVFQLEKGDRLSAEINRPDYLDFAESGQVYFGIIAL", "assay": "SPR; range given for ATK001 and ATK007 together; TNF-alpha immobilized on CM5, HBS", "settings": "tags: recombinant human TNF-alpha (Sigma-Aldrich; biotinylated for SELEX); chain copies: 3", "protocol": "SPR (Surface Plasmon Resonance) analysis was performed using a Biacore2000 (BIACORE, USA). A mixture of NHS (0.1 M N-hydroxysuccinimide) and DEC (0.4 M N-ethyl-N′-(dimethylaminopropyl)carbodiimide) in equal amounts (50 μL) was prepared and allowed to flow at 5 μL/min for 40 sec to thus activate a CM5 sensor chip. When 150-200 RU appeared, TNF-α protein to be immobilized was mixed with sodium acetate (pH 4.0) and allowed to flow at […]. In order to evaluate whether or not the protein was immobilized, 50 mM NaOH was allowed to flow for 5 sec. At 80° C., RNA aptamers ATK001 and ATK007 were denatured for 5 min and then restored at room temperature for 15 min, thus preparing an analyte (RNA).\n(§1) In order to determine kinetics, the flow rate was changed to 30 μL/min."}, "TNF-alpha [2]": {"molecular_target": "T1, TNF-alpha", "assay": "EMSA; 30 mM Tris-HCl pH 7.5, 150 mM NaCl, 1.5 mM MgCl2, 2 mM DTT, tRNA, room temperature; radiolabeled RNA 50 pM", "settings": "tags: recombinant human TNF-alpha (Sigma-Aldrich; biotinylated for SELEX); chain copies: 3", "protocol": "The single-stranded nucleic acids (50 pM) binding to TNF-α, selected in <Example 2> and labeled with radioisotopes, were reacted with TNF-α protein in a manner in which the amount of TNF-α protein was increased (ranging from 0 to 320 nM). Here, the total amount of the aptamer, TNF-α protein, binding buffer (30 mM Tris-HCl (pH 7.5), 150 mM NaCl, 1.5 mM MgCl₂, and 2 mM DTT), and […] tRNA was adjusted to 40 μL, followed by binding at room temperature for 30 min. 6×BPB was added thereto, after which electrophoresis at 4° C. and 120 V using a 6% native gel (6% polyacrylamide, 1×TBE, 10 mM MgCl₂, 2% glycerol), exposure to an X-ray film and development were performed. The dissociation constant Kd was determined by calculating the amount of the RNA aptamer binding to TNF-α relative to the total RNA aptamer.\nThe 4% non-denatured acrylamide gel images of the TNF-α-bound RNA aptamer (C) and the TNF-α-unbound RNA aptamer (F), resulting from reacting the radioisotope-labeled 50 pM RNA aptamer ATK001 (a) and 50 pM RNA aptamer ATK007 (b) with TNF-α in a manner in which the amount of TNF-α was increased (ranging from 0 to 320 nM), are shown in a and b of FIG. 4. The percentage of RNA binding to TNF-α was determined and is graphed in c of FIG. 4."}, "ErbB2": {"molecular_target": "ErbB2 (UniProt P04626 P04626:23-652)", "assay": "SPR; specificity control; printed as about 104 nM, read as 10^4 nM (lost superscript)", "settings": "tags: ThermoFisher", "protocol": "as §1\n(§2) In order to evaluate the binding specificity of the RNA aptamer to TNF-α through SPR analysis in the same manner as in <Example 4> above, the binding capability to ErbB2 (ThermoFisher, USA) (Nucleic Acid Ther. 2011 June; 21(3):173-178), ErbB3 (ThermoFisher, USA) (Proc. Natl. Acad. Sci. USA. (2012), 109(33):13237-42) and IGF-BP1 (ThermoFisher, USA) (Insulin-like growth factor-binding protein 1) (Crit. Rev. Oncol. Hematol. (2008), 66(2):91-98), in addition to TNF-α, was quantified in Kd. The results are shown in [FIG. 5] (FIG. 5a illustrating the results of measurement of binding capability of ATK001, FIG. 5b illustrating the results of measurement of binding capability of ATK007, and FIG. 5c illustrating the results of measurement of binding capability of ATK001)."}, "ErbB3": {"molecular_target": "ErbB3 (UniProt P21860 P21860:20-643)", "sequence (P21860 20-643, one chain of several)": "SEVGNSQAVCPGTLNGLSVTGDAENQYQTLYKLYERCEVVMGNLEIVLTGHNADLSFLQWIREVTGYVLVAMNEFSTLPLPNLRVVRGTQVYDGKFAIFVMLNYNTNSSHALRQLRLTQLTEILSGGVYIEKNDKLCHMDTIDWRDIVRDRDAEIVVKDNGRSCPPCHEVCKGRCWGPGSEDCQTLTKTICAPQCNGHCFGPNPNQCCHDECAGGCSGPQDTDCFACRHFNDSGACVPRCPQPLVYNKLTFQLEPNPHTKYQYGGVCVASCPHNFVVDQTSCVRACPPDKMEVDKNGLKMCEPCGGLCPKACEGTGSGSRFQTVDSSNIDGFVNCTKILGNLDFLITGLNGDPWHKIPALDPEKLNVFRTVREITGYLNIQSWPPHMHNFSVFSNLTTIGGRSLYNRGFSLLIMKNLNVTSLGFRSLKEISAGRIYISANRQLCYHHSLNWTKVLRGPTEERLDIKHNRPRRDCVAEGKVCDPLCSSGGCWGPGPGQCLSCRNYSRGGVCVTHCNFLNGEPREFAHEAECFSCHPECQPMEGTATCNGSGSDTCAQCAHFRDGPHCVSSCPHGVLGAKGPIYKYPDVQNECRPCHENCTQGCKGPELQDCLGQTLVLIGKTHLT", "assay": "SPR; specificity control; printed as about 104 nM, read as 10^4 nM (lost superscript)", "settings": "tags: ThermoFisher", "protocol": "as §1, §2"}}}
{"binder": "B1", "values": [{"measurement": "Kd", "setting": "TNF-alpha [1]", "value": 0.00529, "unit": "µM"}, {"measurement": "Kd", "setting": "TNF-alpha [2]", "value": "~0.005", "unit": "µM"}, {"measurement": "Kd", "setting": "ErbB2", "value": "~10", "unit": "µM"}, {"measurement": "Kd", "setting": "ErbB3", "value": "~10", "unit": "µM"}]}
{"binder": "B2", "values": [{"measurement": "Kd", "setting": "TNF-alpha [1]", "value": 0.00529, "unit": "µM"}, {"measurement": "Kd", "setting": "ErbB2", "value": "~10", "unit": "µM"}, {"measurement": "Kd", "setting": "ErbB3", "value": "~10", "unit": "µM"}]}
